Source: patent US20260209362A1 (VIB VZW, published 2026)

T1: biotinylated recombinant human IL-12Rβ2 (human, UniProt Q99665 24-622, random biotinylated)
T1 construct: Recombinant protein produced in-house, biotinylated; also called hIL-12RB2; human IL-12RB2
T1 sequence: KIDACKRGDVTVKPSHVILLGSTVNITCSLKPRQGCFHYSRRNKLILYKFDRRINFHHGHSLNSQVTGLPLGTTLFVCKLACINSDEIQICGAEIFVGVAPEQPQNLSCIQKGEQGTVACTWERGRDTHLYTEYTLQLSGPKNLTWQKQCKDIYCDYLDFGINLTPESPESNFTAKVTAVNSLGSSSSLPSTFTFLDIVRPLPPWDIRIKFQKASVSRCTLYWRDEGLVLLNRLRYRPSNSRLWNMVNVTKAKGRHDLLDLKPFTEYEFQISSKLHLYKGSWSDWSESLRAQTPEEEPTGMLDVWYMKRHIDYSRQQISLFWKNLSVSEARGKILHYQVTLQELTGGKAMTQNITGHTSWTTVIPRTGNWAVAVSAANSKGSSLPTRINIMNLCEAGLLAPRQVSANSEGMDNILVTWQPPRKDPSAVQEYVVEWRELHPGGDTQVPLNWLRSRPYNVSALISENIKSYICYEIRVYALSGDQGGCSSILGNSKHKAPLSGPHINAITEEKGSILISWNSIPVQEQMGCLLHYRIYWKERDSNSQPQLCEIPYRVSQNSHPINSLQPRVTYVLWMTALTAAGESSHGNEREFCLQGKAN

T2: mouse IL-12Rβ2 expressed on cells (mouse, UniProt P97378 24-874)
T2 construct: HEK293T cells, stably transduced (cDNA NM_008354); also called mIL-12RB2
T2 sequence: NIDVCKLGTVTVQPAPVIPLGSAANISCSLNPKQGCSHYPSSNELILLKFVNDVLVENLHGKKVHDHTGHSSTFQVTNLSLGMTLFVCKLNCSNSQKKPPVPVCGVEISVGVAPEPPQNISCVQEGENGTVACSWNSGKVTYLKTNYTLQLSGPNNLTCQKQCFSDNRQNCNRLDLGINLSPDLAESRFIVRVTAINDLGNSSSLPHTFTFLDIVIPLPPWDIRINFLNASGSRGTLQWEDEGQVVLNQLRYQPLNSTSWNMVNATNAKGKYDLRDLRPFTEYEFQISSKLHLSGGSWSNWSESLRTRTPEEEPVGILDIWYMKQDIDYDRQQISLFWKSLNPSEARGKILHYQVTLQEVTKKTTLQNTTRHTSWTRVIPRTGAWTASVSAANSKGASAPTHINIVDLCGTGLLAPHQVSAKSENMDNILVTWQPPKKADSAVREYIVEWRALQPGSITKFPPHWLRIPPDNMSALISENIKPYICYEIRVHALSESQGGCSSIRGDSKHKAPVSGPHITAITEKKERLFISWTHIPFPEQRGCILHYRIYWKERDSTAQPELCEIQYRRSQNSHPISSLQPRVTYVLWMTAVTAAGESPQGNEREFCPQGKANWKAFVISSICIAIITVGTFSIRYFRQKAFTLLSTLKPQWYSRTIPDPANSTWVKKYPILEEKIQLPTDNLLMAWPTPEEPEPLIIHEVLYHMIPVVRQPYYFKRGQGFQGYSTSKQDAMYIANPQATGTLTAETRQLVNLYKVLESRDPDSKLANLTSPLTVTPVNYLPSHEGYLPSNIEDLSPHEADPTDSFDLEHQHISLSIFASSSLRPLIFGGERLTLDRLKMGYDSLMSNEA

T3: biotinylated recombinant mouse IL-12Rβ2 (mouse, UniProt P97378 24-637, random biotinylated)
T3 construct: Recombinant protein produced in-house, biotinylated; also called mIL-12RB2; mouse IL-12RB2
T3 sequence: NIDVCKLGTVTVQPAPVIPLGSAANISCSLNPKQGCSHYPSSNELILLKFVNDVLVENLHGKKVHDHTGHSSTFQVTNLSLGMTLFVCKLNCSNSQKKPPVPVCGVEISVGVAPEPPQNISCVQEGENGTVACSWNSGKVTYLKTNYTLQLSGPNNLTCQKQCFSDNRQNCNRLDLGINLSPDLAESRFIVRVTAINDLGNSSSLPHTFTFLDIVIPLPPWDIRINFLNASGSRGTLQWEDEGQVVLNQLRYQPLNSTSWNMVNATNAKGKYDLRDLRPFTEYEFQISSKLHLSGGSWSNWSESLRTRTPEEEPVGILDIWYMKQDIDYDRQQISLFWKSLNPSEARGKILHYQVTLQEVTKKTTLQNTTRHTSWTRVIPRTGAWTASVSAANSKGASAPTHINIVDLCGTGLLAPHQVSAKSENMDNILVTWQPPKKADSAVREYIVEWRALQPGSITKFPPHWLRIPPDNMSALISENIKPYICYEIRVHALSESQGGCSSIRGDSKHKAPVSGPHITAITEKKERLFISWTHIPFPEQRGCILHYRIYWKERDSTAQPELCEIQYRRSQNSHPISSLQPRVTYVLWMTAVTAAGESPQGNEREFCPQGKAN

B1: anti-IL-12Rβ2 VHH clone 20473 (VHH, not shown: small tags and cut ends)
VHH: QVQLQESGGGLVQAGDSLRLSCAASGRTFSSYTMGWFRQAPGKEREFVARISQDGGSTYYADSMKGRFTVARDNAKNTVYLQMNSLKPEDTAVYYCAADMIKWGLRVGVDSFKYWGQGTQVTVSS
notes: tested as periplasmic extract; also called 2CAM14
B2: anti-IL-12Rβ2 VHH clone 2CRM40 (VHH, not shown: small tags and cut ends)
VHH: QVQLQESGGGLVQTGGSLRLSCAASGRTYAMAWFRQAPGKEREFAAVIIGGDRTYYANSVKDRFTISRDNAKETVYLQMNNLKPEDTAVYYCAANRRLYNSGRGYSQSEYEYWGQGTQVTVSS
notes: tested as periplasmic extract; also called 20448
B3: anti-IL-12Rβ2 VHH clone 3CRH83 (VHH, not shown: small tags and cut ends)
VHH: QVQLQESGGGLVQAGGSLKLSCAASGNTFSINAMAWYRQAPGQELELVAAISDVGNTIYADSMKGRFTISRGNADNTVYLQMNSLKPEDTATYYCNAGTFYTSPGDSYYRGYDFWGQGTQVTVSS
notes: tested as periplasmic extract
B4: anti-IL-12Rβ2 VHH clone 3CRM95 (VHH, not shown: small tags and cut ends)
VHH: QVQLQESGGGLVQAGDFLRLSCVFSGGTFGDYSMGWFRQAPGKEREFVAAIRWSGDSTQYAEAVKGRFTISRDNAKSTVYLQMSSLKPEDTAVYYCAADPSYYIGPNHTPSRYRDWGQGTQVTVSS
notes: tested as periplasmic extract; also called 20465
B5: anti-IL-12Rβ2 VHH clone 2CRM83 (VHH, not shown: small tags and cut ends)
VHH: QVQLQESGGGLVQPGGSLRLSCAASGFTFSAYAMSWVRQAPGKGLEWVSSISSTGTNPNYADSVKGRFTISRDNAKNTLYLQMNSLKPEDTAVYYCAEAYRNYSPPGQGTQVTVSS
notes: tested as periplasmic extract; also called 20451
B6: anti-IL-12Rβ2 VHH clone 2CRM28 (VHH, not shown: small tags and cut ends)
VHH: QVQLQESGGGLVQPGGSLRLSCAASGRAWNEYNMGWFRQAPGKEREFVALIWWSSGNTYYADSVKGRFTISRDKVKNTVYLQMNSLKPEDTAVYYCAAGPTFNKYEYWGQGTQVTVSS
notes: tested as periplasmic extract
B7: anti-IL-12Rβ2 VHH clone 2CAM62 (VHH, not shown: small tags and cut ends)
VHH: QVQLQESGGGLVQAEGSLRLSCVASGRTFSSYGMGWFRQAPGKEREFVTGISSAGSWIGDITSYADSVKGRFTISRDNAKNILYLQMNSLKPEDTAVYYCAAAYHGSRYYVGSTANEYTTWGQGTQVTVSS
notes: tested as periplasmic extract; also called 20493
B8: anti-IL-12Rβ2 VHH clone 3CRM45 (VHH, not shown: small tags and cut ends)
VHH: QVQLQESGGGLVQAGGSLRLSCTASGSIFAIDDMYWYRQAPGKEREFVAYITATNSANYLDSVNGRFTISRDNAKNSVYLQMNSLKPEDTAVYYCNAKQIVGFQIDEYWGQGTQVTVSS
notes: tested as periplasmic extract; also called 20458
B9: anti-IL-12Rβ2 VHH clone 2CRM42 (VHH, not shown: small tags and cut ends)
VHH: QVQLQESGGGLVQPGESLRLSCQASGRTFSNYRMGWFRQAPGKEREFVAGINWDGGHTYYTDSVKGRFTISRDNAKNTVYLQMNSLKPEDTAVYQCAVRVREYGSSRYEDQFDYWGQGTQVTVSS
notes: tested as periplasmic extract; also called 20449
B10: anti-IL-12Rβ2 VHH clone 2CAM45 (VHH, not shown: small tags and cut ends)
VHH: QVQLQESGGGLVQAGGSLRLSCAASGFTFDDYAIGWFRQAPGKEREGISCISSSDYGTYYAGSVKGRFTISSDNAKNTVYLQMNSLKPEDTAVYYCAAEAISEYDCLGINYGMDYWGKGTQVTVSS
notes: tested as periplasmic extract; also called 20485
B11: anti-IL-12Rβ2 VHH clone 2CAM39 (VHH, not shown: small tags and cut ends)
VHH: QVQLQESGGGLVQAGGSLRLSCAASGRTFSTYAMGWFRQAPGKEREFVAAISWSGGSTYYADSVKGRFTISRDNAKNTGYLQMNSLKPEDTAVYVCAADAEDPILYGSSWNNRRKEYDYWGQGTQVTVSS
notes: tested as periplasmic extract; also called 20482
B12: anti-IL-12Rβ2 VHH clone 2CAM18 (VHH)
VHH: QVQLQESGGGLVQVGDSLKLSCVASGTTFSTHVMAWYRQAPGKQREWVASIDSAGTTNYKDAVKGRFTISRDNVKRTVYLQMNNLKPEDSAVYLCSIPSRNAWGQGTQVTVSS
notes: tested as periplasmic extract; also called 20475

biological target: T1, biotinylated recombinant human IL-12Rβ2; test: ELISA, periplasmic extract on biotinylated hIL-12Rβ2, signal over control wells

Binder	ELISA binding hIL-12RB2/control [ratio]
B1	0.971

biological target: T2, mouse IL-12Rβ2 expressed on cells; test: flow cytometry, P.E. VHH on HEK293T cells stably expressing mIL-12RB2

Binder	% cells bound [%]	dMFI
B2	32.8	166
B3	3.47	21
B4	6.74	51
B5	24.9	122
B6	19.5	100
B7	11.2	70
B8	18.3	110
B9	2.93	22
B10	6.77	51
B11	48.7	255
B12	3.19	13.6

biological target: T3, biotinylated recombinant mouse IL-12Rβ2; test: ELISA, periplasmic extract on biotinylated mIL-12Rβ2, signal over control wells

Binder	ELISA binding mIL-12RB2/control [ratio]
B1	36.3
